Test results published in patent publication US20140249083A1 (THERATECHNOLOGIES, published 2014).
*1 amine or outer side, *2 acyl side, *3 side chain or, on linkers, in order; H or OH if unused. Primed or numbered codes have the meaning given here. [ ]: non-standard residue; d: D form. The star is where a group is joined. βAsp = O=C(O)[C@H](CC(=O)[*:2])N[*:1]; Met(O) = CS(=O)CC[C@H](N)C(=O)O; Hexenoyl(3E) = CC/C=C/CC(=O)*; Asu′ = not defined here

T1: human GRF receptor (human, UniProt Q02643 23-423)
T1 sequence (looked up): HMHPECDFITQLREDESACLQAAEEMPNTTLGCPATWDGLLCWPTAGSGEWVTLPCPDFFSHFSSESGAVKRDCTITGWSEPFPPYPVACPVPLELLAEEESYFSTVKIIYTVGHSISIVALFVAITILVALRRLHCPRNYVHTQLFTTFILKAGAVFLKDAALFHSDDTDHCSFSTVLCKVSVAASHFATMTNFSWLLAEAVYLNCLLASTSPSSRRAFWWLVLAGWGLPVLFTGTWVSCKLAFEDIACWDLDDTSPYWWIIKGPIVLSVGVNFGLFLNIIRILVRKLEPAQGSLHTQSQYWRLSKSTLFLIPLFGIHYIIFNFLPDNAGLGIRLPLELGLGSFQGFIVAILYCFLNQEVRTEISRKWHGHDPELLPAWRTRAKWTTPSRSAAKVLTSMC


The binders below were run against T1, human GRF receptor (assay: cell-based or functional assay).
With {Hexenoyl(3E)}-YADAIFT[βAsp]SYRKVLGQLSARKLLQDIMSRQQGESNQERGARARL-NH2 [TH9507 beta-Asp8] the EC50 (nM), alkaline phosphatase reporter gene assay was 30 nM, the EC50 fold higher than TH9507, reporter gene assay was 500 fold and the EMAX (%), alkaline phosphatase reporter gene assay was 120%. It also gave an SNR (signal to noise ratio), alkaline phosphatase reporter gene assay of 26.9.
Work on {Hexenoyl(3E)}-YADAIFTDSYRKVLGQLSARKLLQDIMSRQQGESNQERGARARL-NH2 [TH9507 Asp8] yielded an EC50 (nM), alkaline phosphatase reporter gene assay of 0.08 nM, an EMAX (%), alkaline phosphatase reporter gene assay of 114% and an SNR (signal to noise ratio), alkaline phosphatase reporter gene assay of 25.3.
{Hexenoyl(3E)}-YADAIFTNSYRKVLGQLSARKLLQDIMSRQQGESNQERGARARL-NH2 [[trans-3-hexenoyl]hGHRH (1-44) amide] was tested, and the “EC50 (nM), alkaline phosphatase reporter gene assay” value (shortened to “EC50 (nM)”) was 0.06 nM.
With {Hexenoyl(3E)}-YA[βAsp]AIFTNSYRKVLGQLSARKLLQDIMSRQQGESNQERGARARL-NH2 [TH9507 beta-Asp3] the “EC50 (nM)” value was 4.24 nM and the “EMAX (%), alkaline phosphatase reporter gene assay” value was 116%.
With {Hexenoyl(3E)}-YA[Asu′]AIFTNSYRKVLGQLSARKLLQDIMSRQQGESNQERGARARL-NH2 (reading uncertain) [TH9507 cyclic form at Asp^3] the “EC50 (nM)” value was 0.2 nM, the “EMAX (%), alkaline phosphatase reporter gene assay” value was 95.7% and the “SNR (signal to noise ratio), alkaline phosphatase reporter gene assay” value was 21.3.
{Hexenoyl(3E)}-YADAIFTNSYRKVLGQLSARKLLQDI[Met(O)]SRQQGESNQERGARARL-NH2 [N-Hex-hGRF[1-44]Met[O]27 amide] was tested, and the “EC50 (nM)” value was 0.16 nM.
